Like-named read-outs stand apart in the source and are kept apart here.

The text below walks through data of paper PMC8450099.

What all share (experiment): MST
For data set [1], the target named is T1, Mlh1;Pms1 (Saccharomyces cerevisiae (baker's …, UniProt P38920;P14242 1-769;1-873, |)).
Data set [2] concerns the target T2, Mlh1-FKBP464 (Complex #2 subunit);Pms1-FRB627 (Complex #2 subunit) (Saccharomyces cerevisiae (baker's …, UniProt P38920;P14242 1-464+=GS+P62942:2-108+=GS+465-769;1-627+=[…]+628-873, internal_change|internal_change).
In data set [3] the target is T1, Mlh1;Pms1. This is another data set of the same source.
Data set [4] deals with T3, Mlh1-FRB355,FKBP464 (Complex #1 subunit);Pms1 (Saccharomyces cerevisiae (baker's …, UniProt P38920;P14242 1-355+=[…]+356-464+=GS+P62942:2-108+=GS+465-769;1-873, internal_change|).
Data set [5] concerns the target T4, Mlh1-FRB355 (Complex #5 subunit);Pms1-FKBP460 (Complex #5 subunit) (Saccharomyces cerevisiae (baker's …, UniProt P38920;P14242 1-355+=[…]+356-769;1-460+=GS+P62942:2-108+=GS+461-873, internal_change|internal_change).
The target in data set [6] is T2, Mlh1-FKBP464 (Complex #2 …). This is another data set of the same source.
In data set [7] the target is T1, Mlh1;Pms1. The source holds these as a separate data set.
Data set [8] has as its target T3, Mlh1-FRB355,FKBP464 (Complex #1 …). This is another data set of the same source.
Data set [9] has as its target T2, Mlh1-FKBP464 (Complex #2 …). This is another data set of the same source.
The target in data set [10] is T1, Mlh1;Pms1. This is another data set of the same source.
Data set [11] deals with T3, Mlh1-FRB355,FKBP464 (Complex #1 …). This is another data set of the same source.
Data set [12] concerns the target T4, Mlh1-FRB355 (Complex #5 …). The source holds these as a separate data set.
In data set [13] the target is T2, Mlh1-FKBP464 (Complex #2 …). The source holds these as a separate data set.

B1: homoduplex AO4549/AO4548 (48-mer in Methods, called 49 bp in Results) (dsDNA)
DNA 1: CTGGACGGGTTAAGACCGAACGTGGCTCCAGAAACGGGTGCAACTGGG
DNA 2: CCCAGTTGCACCCGTTTCTGGAGCCACGTTCGGTCTTAACCCGTCCAG
One may read the Kd as the equilibrium constant for the complex coming apart. A higher Kd goes with a looser complex. Regarding B1, the dissociation constant Kd is 628 nM with Mlh1;Pms1 [1]; 391 nM in [2]; 141 nM with Mlh1;Pms1 [3]; 98.4 nM in [4]; 287 nM in [5]; 207 nM in [6]. Further, the dissociation constant Kd amounted to 173 nM with Mlh1;Pms1 [7]; 198 nM in [8]; 211 nM in data set [9]; 675 nM in the data set with Mlh1;Pms1 [10]; 421 nM in [11]; 556 nM in data set [12]. In [13], this molecule yielded an equilibrium dissociation constant (Kd) of 431 nM.
